Measurements published in IntAct's records for PubMed 35512704.

B1: Speckle-type POZ protein (Homo sapiens), O43791 (parent)
chain: MSRVPSPPPPAEMSSGPVAESWCYTQIKVVKFSYMWTINNFSFCREEMGEVIKSSTFSSGANDKLKWCLRVNPKGLDEESKDYLSLYLLLVSCPKSEVRAKFKFSILNAKGEETKAMESQRAYRFVQGKDWGFKKFIRRDFLLDEANGLLPDDKLTLFCEVSVVQDSVNISGQNTMNMVKVPECRLADELGGLWENSRFTDCCLCVAGQEFQAHKAILAARSPVFSAMFEHEMEESKKNRVEINDVEPEVFKEMMCFIYTGKAPNLDKMADDLLAAADKYALERLKVMCEDALCSNLSVENAAEILILADLHSADQLKTQAVDFINYHASDVLETSGWKSMVVSHPHLVAEAYRSLASAQCPFLGPPRKRLKQS
partner: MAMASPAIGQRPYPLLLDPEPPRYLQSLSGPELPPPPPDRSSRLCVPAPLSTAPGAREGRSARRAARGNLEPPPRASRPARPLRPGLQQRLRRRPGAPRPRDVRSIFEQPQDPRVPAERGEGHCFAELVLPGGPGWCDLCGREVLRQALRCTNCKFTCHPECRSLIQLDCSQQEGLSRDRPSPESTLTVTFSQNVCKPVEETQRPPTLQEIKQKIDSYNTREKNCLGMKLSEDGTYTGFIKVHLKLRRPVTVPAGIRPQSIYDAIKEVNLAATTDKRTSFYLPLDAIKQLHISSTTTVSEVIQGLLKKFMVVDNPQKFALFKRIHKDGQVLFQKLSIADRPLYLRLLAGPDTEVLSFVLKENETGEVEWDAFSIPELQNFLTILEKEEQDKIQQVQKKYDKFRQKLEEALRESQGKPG
B2: Speckle-type POZ protein (Homo sapiens), O43791 (parent)
chain: B1 chain
partner: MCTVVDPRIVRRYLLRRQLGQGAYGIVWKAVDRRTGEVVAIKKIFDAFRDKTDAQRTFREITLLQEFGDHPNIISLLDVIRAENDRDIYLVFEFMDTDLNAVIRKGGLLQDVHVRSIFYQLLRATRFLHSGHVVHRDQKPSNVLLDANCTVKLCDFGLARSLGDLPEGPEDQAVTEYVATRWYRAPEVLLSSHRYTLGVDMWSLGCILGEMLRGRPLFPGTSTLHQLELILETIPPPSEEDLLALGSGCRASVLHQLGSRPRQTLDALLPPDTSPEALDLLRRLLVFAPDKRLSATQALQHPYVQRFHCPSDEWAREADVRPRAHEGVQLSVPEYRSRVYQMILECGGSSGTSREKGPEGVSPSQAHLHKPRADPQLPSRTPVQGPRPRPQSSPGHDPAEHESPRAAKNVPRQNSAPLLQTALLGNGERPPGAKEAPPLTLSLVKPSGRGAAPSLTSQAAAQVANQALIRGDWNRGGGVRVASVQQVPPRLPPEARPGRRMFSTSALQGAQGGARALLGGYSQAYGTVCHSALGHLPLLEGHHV
B3: Speckle-type POZ protein (Homo sapiens), O43791 (parent)
chain: B1 chain
partner: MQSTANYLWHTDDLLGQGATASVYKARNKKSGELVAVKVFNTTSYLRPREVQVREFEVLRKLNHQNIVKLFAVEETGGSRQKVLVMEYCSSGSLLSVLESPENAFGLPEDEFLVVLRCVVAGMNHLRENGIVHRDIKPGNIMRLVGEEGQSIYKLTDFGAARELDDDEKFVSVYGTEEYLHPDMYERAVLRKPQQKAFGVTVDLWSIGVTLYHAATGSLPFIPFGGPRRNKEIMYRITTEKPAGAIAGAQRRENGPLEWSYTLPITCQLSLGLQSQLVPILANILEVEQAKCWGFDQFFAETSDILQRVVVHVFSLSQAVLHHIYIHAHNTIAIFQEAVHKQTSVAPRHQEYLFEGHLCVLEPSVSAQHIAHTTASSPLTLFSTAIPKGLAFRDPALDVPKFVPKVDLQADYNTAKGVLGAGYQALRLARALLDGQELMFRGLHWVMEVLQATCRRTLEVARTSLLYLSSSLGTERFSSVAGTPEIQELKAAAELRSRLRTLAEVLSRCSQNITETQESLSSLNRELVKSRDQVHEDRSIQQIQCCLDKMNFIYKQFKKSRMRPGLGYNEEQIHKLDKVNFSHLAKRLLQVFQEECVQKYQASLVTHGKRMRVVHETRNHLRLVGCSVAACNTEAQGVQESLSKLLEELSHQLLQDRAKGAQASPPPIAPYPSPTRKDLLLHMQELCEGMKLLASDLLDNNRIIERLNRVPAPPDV
B4: Speckle-type POZ protein (Homo sapiens), O43791 (parent)
chain: B1 chain
partner: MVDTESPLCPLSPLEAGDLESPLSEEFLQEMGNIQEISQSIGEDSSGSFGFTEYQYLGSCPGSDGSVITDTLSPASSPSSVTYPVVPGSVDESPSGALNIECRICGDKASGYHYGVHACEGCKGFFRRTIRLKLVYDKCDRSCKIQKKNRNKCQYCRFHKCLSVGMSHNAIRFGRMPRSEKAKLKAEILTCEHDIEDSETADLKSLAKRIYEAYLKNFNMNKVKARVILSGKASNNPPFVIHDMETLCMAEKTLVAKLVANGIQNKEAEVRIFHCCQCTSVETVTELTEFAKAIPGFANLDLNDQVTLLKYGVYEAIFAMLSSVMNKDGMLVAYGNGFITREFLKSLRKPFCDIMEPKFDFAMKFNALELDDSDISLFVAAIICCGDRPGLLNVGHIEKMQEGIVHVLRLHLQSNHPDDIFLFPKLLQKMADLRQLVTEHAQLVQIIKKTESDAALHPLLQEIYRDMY
B5: Speckle-type POZ protein (Homo sapiens), O43791 (parent)
chain: B1 chain
partner: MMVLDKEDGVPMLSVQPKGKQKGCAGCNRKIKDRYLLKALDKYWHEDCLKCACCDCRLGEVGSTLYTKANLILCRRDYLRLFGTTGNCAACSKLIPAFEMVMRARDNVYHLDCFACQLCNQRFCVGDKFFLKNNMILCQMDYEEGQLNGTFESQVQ
B6: Speckle-type POZ protein (Homo sapiens), O43791 (parent)
chain: B1 chain
partner: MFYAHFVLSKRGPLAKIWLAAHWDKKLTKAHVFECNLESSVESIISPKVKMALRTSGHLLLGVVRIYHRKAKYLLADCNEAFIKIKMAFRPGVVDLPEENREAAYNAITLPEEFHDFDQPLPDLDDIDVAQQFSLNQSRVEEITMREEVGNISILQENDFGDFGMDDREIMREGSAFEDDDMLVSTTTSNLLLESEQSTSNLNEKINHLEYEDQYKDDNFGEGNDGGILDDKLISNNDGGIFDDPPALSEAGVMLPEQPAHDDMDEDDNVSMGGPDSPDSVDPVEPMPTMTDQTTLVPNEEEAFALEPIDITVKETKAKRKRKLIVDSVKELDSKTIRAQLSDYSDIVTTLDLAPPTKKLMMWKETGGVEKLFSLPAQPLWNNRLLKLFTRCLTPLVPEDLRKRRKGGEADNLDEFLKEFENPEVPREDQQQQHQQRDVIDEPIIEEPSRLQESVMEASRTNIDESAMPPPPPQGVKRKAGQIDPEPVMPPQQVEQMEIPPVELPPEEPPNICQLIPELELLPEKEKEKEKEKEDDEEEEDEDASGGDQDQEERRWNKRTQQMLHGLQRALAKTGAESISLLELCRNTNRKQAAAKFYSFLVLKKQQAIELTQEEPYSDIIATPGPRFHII
B7: Speckle-type POZ protein (Homo sapiens), O43791 (parent)
chain: B1 chain
partner: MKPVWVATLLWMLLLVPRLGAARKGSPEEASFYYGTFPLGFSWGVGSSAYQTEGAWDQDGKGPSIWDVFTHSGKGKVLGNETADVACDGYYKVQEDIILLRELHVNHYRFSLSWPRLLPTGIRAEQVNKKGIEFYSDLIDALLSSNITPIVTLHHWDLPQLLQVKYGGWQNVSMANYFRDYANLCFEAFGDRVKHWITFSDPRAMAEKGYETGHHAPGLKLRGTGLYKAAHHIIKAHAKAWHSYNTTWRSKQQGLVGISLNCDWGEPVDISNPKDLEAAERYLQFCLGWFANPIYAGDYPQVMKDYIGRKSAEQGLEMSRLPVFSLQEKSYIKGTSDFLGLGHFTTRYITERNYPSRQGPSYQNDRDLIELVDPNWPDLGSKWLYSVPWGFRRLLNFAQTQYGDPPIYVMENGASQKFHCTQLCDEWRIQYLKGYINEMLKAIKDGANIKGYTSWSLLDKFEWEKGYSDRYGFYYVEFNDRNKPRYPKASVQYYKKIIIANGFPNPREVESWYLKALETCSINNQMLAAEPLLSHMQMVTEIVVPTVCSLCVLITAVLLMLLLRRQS

Variants of: B1
Settings: with rasf5_human RASSF5, Q8WWW0

| effect of a mutation on the interaction | Variant |
| --- | --- |
| with no effect | Y87C |

Variants of: B2
Settings: with mk15_human MAPK15, Q8TD08

| Variant | effect of a mutation on the interaction |
| --- | --- |
| Y87C | with no effect |

Variants of: B2
Settings: with mk15_human MAPK15, Q8TD08
Remark: another data set of the same source

| Variant | effect of a mutation on the interaction |
| --- | --- |
| F102C | with no effect |

Variants of: B2
Settings: with mk15_human MAPK15, Q8TD08
Remark: another data set of the same source

| Variant | effect of a mutation on the interaction |
| --- | --- |
| F133L | with no effect |

Variants of: B2
Settings: with mk15_human MAPK15, Q8TD08
Remark: another data set of the same source

| Variant | effect of a mutation on the interaction |
| --- | --- |
| F133V | with no effect |

Variants of: B3
Settings: with ikke_human IKBKE

| effect of a mutation on the interaction | Variant |
| --- | --- |
| with no effect | F133L |

Variants of: B3
Settings: with ikke_human IKBKE
Remark: another data set of the same source

| effect of a mutation on the interaction | Variant |
| --- | --- |
| with no effect | F133V |

Variants of: B3
Settings: with ikke_human IKBKE
Remark: another data set of the same source

| effect of a mutation on the interaction | Variant |
| --- | --- |
| with no effect | F102C |

Variants of: B3
Settings: with ikke_human IKBKE
Remark: another data set of the same source

| effect of a mutation on the interaction | Variant |
| --- | --- |
| with no effect | Y87C |

Variants of: B4
Settings: with ppara_human PPARA

| effect of a mutation on the interaction | Variant |
| --- | --- |
| with no effect | Y87C |

Variants of: B4
Settings: with ppara_human PPARA
Remark: another data set of the same source

| effect of a mutation on the interaction | Variant |
| --- | --- |
| with no effect | F102C |

Variants of: B4
Settings: with ppara_human PPARA
Remark: another data set of the same source

| effect of a mutation on the interaction | Variant |
| --- | --- |
| with no effect | F133V |

Variants of: B4
Settings: with ppara_human PPARA
Remark: another data set of the same source

| effect of a mutation on the interaction | Variant |
| --- | --- |
| with no effect | F133L |

Variants of: B5
Settings: with rbtn1_human LMO1, P25800

| effect of a mutation on the interaction | Variant |
| --- | --- |
| with no effect | F102C |

Variants of: B5
Settings: with rbtn1_human LMO1, P25800
Remark: another data set of the same source

| effect of a mutation on the interaction | Variant |
| --- | --- |
| with no effect | F133L |

Variants of: B5
Settings: with rbtn1_human LMO1, P25800
Remark: another data set of the same source

| effect of a mutation on the interaction | Variant |
| --- | --- |
| with no effect | F133V |

Variants of: B5
Settings: with rbtn1_human LMO1, P25800
Remark: another data set of the same source

| effect of a mutation on the interaction | Variant |
| --- | --- |
| with no effect | Y87C |

Variants of: B6
Settings: with rad21_human RAD21, O60216

| effect of a mutation on the interaction | Variant |
| --- | --- |
| with no effect | Y87C |

Variants of: B6
Settings: with rad21_human RAD21, O60216
Remark: another data set of the same source

| effect of a mutation on the interaction | Variant |
| --- | --- |
| with no effect | F133V |

Variants of: B6
Settings: with rad21_human RAD21, O60216
Remark: another data set of the same source

| effect of a mutation on the interaction | Variant |
| --- | --- |
| with no effect | F133L |

Variants of: B6
Settings: with rad21_human RAD21, O60216
Remark: another data set of the same source

| effect of a mutation on the interaction | Variant |
| --- | --- |
| with no effect | F102C |

Variants of: B7
Settings: with lctl_human LCTL

| effect of a mutation on the interaction | Variant |
| --- | --- |
| with no effect | Y87C |

Variants of: B7
Settings: with lctl_human LCTL
Remark: another data set of the same source

| effect of a mutation on the interaction | Variant |
| --- | --- |
| with no effect | F102C |
